Assays:
[1] = target: recombinant His-tagged human FcγRIa (human) (UniProt P12314); experiment: SPR (Biacore), His-tagged FcγRIa captured on anti-His chip, antibody in solution, resonance units against antibody concentration
[2] = target: recombinant His-tagged human FcγRIIIa (176-Val [V]) (human) (UniProt P08637); experiment: SPR (Biacore), His-tagged FcγRIIIa-V captured on anti-His chip, antibody in solution, resonance units against antibody concentration
Sequence of recombinant His-tagged human FcγRIIIa (176-Val [V]) (human) (P08637 17-208 F176V limits assumed): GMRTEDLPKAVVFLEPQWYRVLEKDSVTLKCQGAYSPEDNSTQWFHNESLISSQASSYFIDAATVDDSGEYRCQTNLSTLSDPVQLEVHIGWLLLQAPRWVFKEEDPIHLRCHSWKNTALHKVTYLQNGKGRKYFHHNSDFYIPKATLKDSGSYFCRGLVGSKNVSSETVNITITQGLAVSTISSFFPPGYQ

Sequence of recombinant His-tagged human FcγRIa (human) (P12314 16-288 limits assumed): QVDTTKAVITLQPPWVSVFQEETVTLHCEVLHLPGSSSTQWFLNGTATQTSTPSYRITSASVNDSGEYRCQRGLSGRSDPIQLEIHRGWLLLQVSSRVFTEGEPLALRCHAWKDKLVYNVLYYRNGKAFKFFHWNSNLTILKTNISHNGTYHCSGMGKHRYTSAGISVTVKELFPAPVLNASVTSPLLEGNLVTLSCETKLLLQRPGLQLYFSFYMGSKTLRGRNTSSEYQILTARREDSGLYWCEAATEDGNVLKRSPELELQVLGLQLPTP

IgG1-b12 (anti-HIV gp120 antibody, wild-type IgG1 Fc)
EC50 (read off the curve) [1]: 60 nM
EC50 (read off the curve) [2]: 400 nM

Reference: US20250289899A1
